One data set concerns 2L6HC3_13. The data set is described as follows: Thermofluor assay, amantadine on 2L6HC3_13 (scaffold lacking the amantadine binding site). As to conditions: 1 mM amantadine. As for the experimental part:
(§1) A synthetic gene encoding ABP was obtained and the protein expressed in E. coli.The design was expressed at high levels in the soluble fraction and was found by SEC-MALS to be a trimer in the presence and absence of amantadine (FIG. 2a). Interactions with amantadine were probed using thermofluor dye binding assay (differential scanning fluorimetry). […] As the protein was heated to 95° C., the fluorescence signal decreased, corresponding to protein aggregation at higher temperatures. […] In contrast, 2L6HC3_13, which has the same backbone parameters but lacks the amantadine binding site, is thermally stable by thermofluor assay, only starting to denature at ˜80° C. (FIG. 2b).
(§2) Thermofluor assays were performed in SAXS buffer using a CFX96 Touch™ Real-Time PCR machine (Bio-Rad). Thermal stability assays were performed using 45 μL of 5 μM protein (with or without 1 mM amantadine) and 5 μL of freshly prepared 200X SYPRO™ orange (Thermo-Fisher) solution in SAXS buffer. The temperature was ramped from 25 ° C. to 95 ° C. in 0.5 ° C. increments with intervals of 5 s. Fluorescence was read in the FRET scanning mode. The average of three replicates of buffer+SYPRO orange solution (no protein control) was subtracted from the average of three replicates for each sample.
For orientation: DSF heats the sample and reads unfolding from a dye or from intrinsic fluorescence.

The next data set has as its system ABP_L6Q. Kind of data set: Thermofluor assay, amantadine on ABP_L6Q. It is filed as binding. As to conditions: 1 mM amantadine, 5 μM protein, SYPRO orange, 25° C. The protocol:
(§3) As the protein was heated to 95° C., the fluorescence signal decreased, corresponding to protein aggregation at higher temperatures.
as §2

Data set [1] has as its system ABP (amantadine-binding protein). Kind of data set: Thermofluor dye binding assay (differential scanning fluorimetry), amantadine on ABP. As to conditions: 1 mM amantadine, 5 μM protein, SYPRO orange, 25° C. As for the experimental part:
as §1, §2

The test system of the next data set is ABP. Kind of data set: Circular dichroism temperature melt of ABP in the presence of amantadine. The class given is binding. As for the experimental part:
as §1
(§4) CD wavelength scans (260 to 195 nm) and temperature melts (25 to 95° C.) were measured using a JASCO™ J-1500 or an AVIV™ model 420 CD spectrometer. Temperature melts monitored […] at 222 nm and were carried out at a heating rate of 4° C/min. Protein samples were prepared at 0.25 mg/mL in phosphate buffered saline (PBS) pH 7.4 in a 0.1 cm cuvette.

Data set [2] deals with the molecule itself. Kind of data set: SEC-MALS; self-association of ABP subunits into a homo-trimer.
Data set [3] is described as follows: Thermofluor melting curve of the proteins without ligand. It is filed as physicochemical. As to conditions: for initial fluorescence signal of the apo protein (thermofluor melting curve): 25° C., without amantadine. As for the experimental part: as §1, §3, §2
Data set [4] can be described thus: SEC-MALS oligomeric state. As to conditions: in the presence and absence of amantadine. It is filed as physicochemical. As for the experimental part:
as §1

Data set [5] is described as follows: Circular dichroism temperature melt of ABP. It is filed as physicochemical. To be noted: CD at 25, 75, 95° C., without amantadine. The protocol: as §1, §4
Background: Circular dichroism is the unequal absorption of left and right circularly polarised light.

“Also recorded” adds a separate entry of the source.

With `NC12CC3CC(CC(C3)C1)C2` [amantadine], the “effect of amantadine on the melting curve of 2L6HC3_13” value in the data set on 2L6HC3_13 is listed as “no effect”. For the same molecule, in the data set with ABP_L6Q, the “initial fluorescence signal of ABP_L6Q in the presence of amantadine, compared with apo-ABP_L6Q” value is recorded as “lowered; also recorded: much lower”. In data set [1], the “initial fluorescence signal of ABP in the presence of amantadine, compared with apo-ABP” value is reported as “lowered; also recorded: much lower”. For the same molecule, the “loss in CD signal of ABP on heating to 95° C. in the presence of amantadine” value in the data set with ABP (1 mM amantadine) was “not significantly altered”. Besides, the “thermal stability of ABP by CD spectrum in the presence of amantadine” value in the data set on ABP (5 mM amantadine, 25, 75, 95° C.) is “not significantly affected”.

B1: ABP (amantadine-binding protein) (designed binder)
chain: GSHMGDAQDKLKYLVKQLERALRELKKSLDELERSLEELEKNPSEDALVENNRLNVENNKIIVEVLRIILELAKASAKLA
notes: The measurement row with m1 as both partners means self-association of ABP subunits
On to B1, for which the binding result in data set [2] is “binds”.

B2: 2L6HC3_13: previously characterized design; same backbone parameters as ABP but lacks the amantadine binding site (protein)
chain: GTKYELRRALEELEKALRELKKSLDELERSLEELEKNPSEDALVENNRLNVENNKIIVEVLRIIAEVLKINAKSD
With B2, the “initial fluorescence signal of the apo protein (thermofluor melting curve)” value in data set [3] is “very low”. The “temperature at which the protein starts to denature (thermofluor)” value in data set [3] (thermofluor assay, 25 to 95° C.) was roughly 80 °C.

B3: ABP: de novo designed homo-trimeric amantadine-binding protein, SEQ ID NO:1 (protein)
chain: DAQDKLKYLVKQLERALRELKKSLDELERSLEELEKNPSEDALVENNRLNVENNKIIVEVLRIILELAKASAKLA
modifications: homotrimer
As to B3, the “initial fluorescence signal of the apo protein (thermofluor melting curve)” value in data set [3] is “high”. The “oligomeric state by SEC-MALS” value in data set [4] was “trimer”. In addition, in data set [5], the “thermal stability of the all α-helical structure by CD spectrum” value was “fairly stable up to 75 °C”.

The values are drawn from US20220185853A1, “AMANTADINE BINDING PROTEIN” (UNIVERSITY OF WASHINGTON, priority 2019, published 2022).
